From the NTF2 design screens of Basanta et al. (2020)

Test: protease stability score; higher = more stable; yeast display proteolysis, trypsin and chymotrypsin;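 note: relative to predicted unfolded state with 0 unfolded-like and 1 meaning tenfold more protease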

| Sequence | protease stability score |
| --- | --- |
| SELEKFIRKYSDDWRELHRTGDFEIFQELADPHMIFHSIVGDKRTEIHGRESYIEWLREELEHWRIHHIQLRRSTAIGDFAVVDGELDGEFNGQRERRKVKVDLFVVNGQTKHIEFRIH | 1.19 |
| SELEKHIKDYFDYIFTLLLTGDWDTLWRMADPNVRFHAEGHEIHGRELWEEFIRKFKNIKVHLHRSSLIGDYLFLDGELEINGRRIRTEIELVIVNGRLTEVSHRLR | 0.807 |
| SELEKHLEDVASMWLKVIQTGDWDKLFELADPNVRFEQIYGDKKVELHGREEMIEWLRKFMEQMRTEHRIHSMEVQGDKVHLDTRVILDFNGVRIHLETRVIIIVVNGRLHSYSEHVK | 1.31 |
| SELEKLAEEMLELFIEIFLTGDWRTFLRLADPHTRLNVDGKNNHGREEVRRHLEEELRQMRWHDVKIHDFDVIGEKAHVRLRVDGIINGRRIDFEMELEITVVNGVIKDVRVRRR | 1.48 |
| SELEKLLLDIARKLIHSYLTGDWRTFQELADPNVKIRVVVGDKEERIHGRENIIEWLERERKQYDHIEVRIDDERTIGDKLHIDGTFIIRVDGKTRFSRVEIHLLIIDGKVTSLEFHEK | 1.07 |
| SELEKLSHELARLLIENWETGDWKRFIDLIDPHAKLHIGDKDHIGREEITRFLKEVWHRFDHIEMRIHHIKVIGNYAHSDGEMIININGQERRHDVEIIVVVVNGVVHSVEIHIE | 1.9 |
| SELEKYSKLMLDLILHSRLTGDEEHHEKLMDPNVRIEIGDKELHGRELAVKWMSHWRLEELRVRHIHNQGDKINVDVEEVETVDGVRIRFRSELIILKVDGQWLNHSIITR | 1.16 |
| SELEQELKHFVRLMKEIMRTGNWDLFERYADPNVRLEINGRDYIGRELASESLRHFVEEWGLDRVDVRVEHSSFQGDKAHSKINTDFNGQERTVHYDVLKVDGRWIVQRVRIE | 2.06 |
| SELEQMWREAKETIEKINKTGDPRSLLENADPTVRTDYGEKDYHGREEFKKFLEWLGIKHIKDVRFRDFEVQGDKIIHDSEVDVEVGDKEFRIKSIVIALKVDGRWLITRLVFK | 1.9 |
| SELERDAEMAFKIYKHNIETGNEEELDKLVDPNVRLEAENHSTHGREDWYNLMRHFGVKHTDVKDFRIQGDKIHLHGVLHFNGRTFKITLYVHKFDGRWHIKSVEVH | 0.364 |
| SELERHAKEIAKIFSEVESTGDEDRMWELVDPDVRLHVGDKEFHGMEWVITLIREHLRHIRLKHVEITHIRVIDGRVDVDTRIHGIINGRELVTKSRIIIDKINGRWLVSSLKYE | 1.15 |
| SELERLIMEMLHLLIELWLTGDEETLSKLIDPNTRLIVIQGDKHIIVHGRELVLHIMRRIREEIRFEDSRIRSMDAQGNKASINEEMHFRIGDKEVRFEREVEVWVIDGKLHSLVIRIK | 0.871 |
| SELERQIERANRELVDIIYTGDEHLVDRMLDPRTLLTVGDKHTIGREEMIEWFKHHIREMRIRHSDTKDPHFINGVIDSHLYLDMEFDGRRFISRTRLIVLKIDGRWHIERITII | 0.687 |
| SELHEDAEEIAKQFSRAWTTGDFEELDKLFDPNARIEYGDYEVHGRHIVSKFLRQIRIKEVRFIVRRVEHYDGRIRLWGELTLHGNINGRDFDLHTKSDLLVIKIDGRWVVEQYIIR | 1.47 |
| SELHEEAEELTEKIIRILLTGNEHFFSELVDPDVRTNVDGKELHGREEALRKFEEMRRKLGYDRVRVELRKYTVFDGRVEVVTELNVNGRRLEYIWRMHKVDGRWSLHIWEIR | 2.65 |
| SELHEEIHKMVQEFLELFLTGDFHRIKQLMDPNVKLIYGDKLFHGRENVEKLHEELRWRYKNATIHVDLREITIFENRAVTDTSIEFDVNGKHISHETKVIIEKIDGQWVIKSIYIN | 2.13 |
| SELHEEVRHIAEQWVKSWITGDEHLLQKLADPHVRFKIGDKSNHGRENVIKEIRRLEEEHGAEERIIITHVRVVGDKYELHGTYELRIGDKHETRHLHIEIWVVNGVVKEIDIQID | 1.07 |
| SELHEKLKRDMDILEELLLTGDWEKLLKYIDPHARLEIGDKEVHGREILSEVFRDVFERIKNARIHIEHSEAINGRFDIHSEWIVNGKNRRVHIETVVINGRVDKLYFEIRHR | 1.05 |
| SELHKFAEELSRRWFEMVLTGDEDSLNELADPNVRNDVNGRELIGRESFAKWVKELRIEDVRHKRSRIEVQGDKMIIHMDIESVVTIDGVRRDQRYEIIIISRKVNGRWLVHSVEFRVE | 1.18 |
| SELHKHVKHLAEHFWHLLETGDWEKMTKNADPNDRLDIHIGDKDIHNHGRERSLKTWTELEREMGIDHLTLRHRDLQGDKVIIHTESVFDGRHVKVEIIVVVINGRLKRVEVRFE | 0.767 |
